Experimental data reported in the nanobody polyreactivity screen of Harvey et al. (2022).

Test: yeast display, Sf9 membrane polyspecificity reagent, FACS + sequencing; frameworks hold sequencing errors
Summary of the method: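 A synthetic nanobody library was expressed on Saccharomyces cerevisiae BJ5465 by galactose induction for 36–48 hours. The library was stained for 1 hour at 4 °C with 10% biotinylated, detergent-solubilized Sf9 membrane reagent and enriched with streptavidin microbeads before FACS. Low and high (top ~1%) gates were set on anti-HA fluorescence for expression and streptavidin fluorescence for reagent binding, and each polyreactivity label reflects the gate of origin.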

| Sequence | polyreactivity (PSR sort gate) |
| --- | --- |
| QVQLVESGGGLVQAGGSLRLSCAASGTTFSPNAMGWYRQAPGKERELVAAITGGGSTYADSVKGRFTISRDNAKNTVYLQMNSLKPEDTAVYYCNADSYSFPYYYWGQGTQVTVSS | low polyreactivity |
| QVQLVESGGGLVQAGGSLRLSCAASGTTFTFNAMGWYRQAPGKEREFVAAITASGGRTYYADSVKGRFTISRDNAKNTVYLQMNSLKPEDTAVYYCAAHACLLGPGDFNYWGQGTQVTVSS | low polyreactivity |
| QVQLVESGGGLVQAGGSLRLSCAASGTTFVKNDMGWYRQAPGKERELVAAISGGSTNYADSVKGRFTISRDNAKNTVYLQMNSLKPEDTAVYYCAAVQWYTSIEGIQPYYYWGQGTQVTVSS | low polyreactivity |
| QVQLVESGGGLVQAGGSLRLSCAASGTTFVSNAMGWYRQAPGKERELVAAISKSGGSTYYADSVKGRFTISRDNAKNTVYLQMNSLKPEDTAVYYCAKYTAKSFYGQYDYWGQGTQVTVSS | high polyreactivity |
| QVQLVESGGGLVQAGGSLRLSCAASGTTFYYYAMGWYRQAPGKEREFVAAIRFSGSRTYYADSVKGRFPISRDNAKNTVYLQMNSLIPEDTAVYYCARATLPSVSYYRKLFDYWGQGTHVTVSS | high polyreactivity |
| QVQLVESGGGLVQAGGSLRLSCAASGTTIETYASGWYRQAPGKERELVATITSGGSTYYAYSVKGRFTISRDTAKITVYLQMNSLKPEDTSVYYCAAGRYGGKHVWYYYWGQGTQVTVSS | high polyreactivity |
| QVQLVESGGGLVQAGGSLRLSCAASGTYKYYAMGWYRHAPGKERELVAATNRGGSTNYADSVKGRFTISRDNAKNTVYLQMNSLKPEDTAVYYCAAERWYVRGRHYYYWGQGTQVTVSS | high polyreactivity |
| QVQLVESGGGLVQAGGSLRLSCAASGTYTNAMGWYRQAPGKERELVAAITSSGGSTYYADSVKGRFTISRDNAKNTVYLQMNSLKPEDTAVYYCAKPGVYEVSYTYGYWGQGTQVTVSS | low polyreactivity |
| QVQLVESGGGLVQAGGSLRLSCAASGVIFGAYAMGWYRQAPGKERELVAAISSRGTSTYYADSVKGRFTISRDNAKNTVYLQMNSLKPEDTAVYYCNVYYIPLRRYDYWGQGTQVTVSS | high polyreactivity |
| QVQLVESGGGLVQAGGSLRLSCAASGVIFKPSAMGWYRQAPGKERELVASISTGARTYYADSVKGRFTISRDTAKNTVYLQLNSLKPEDTAVYYCAAAYSRWITRYDYWGQGTQVTVSS | high polyreactivity |
| QVQLVESGGGLVQAGGSLRLSCAASGVIFYFNALGWYRQAPGKERELVAAISGGDNTYYADSVKGRFTISRDNAKNTVYLQMNSLKPEDTAVYYCAAKYRYGQNGYYLYGYWGQGTQVTVSS | low polyreactivity |
| QVQLVESGGGLVQAGGSLRLSCAASGVNAMGWYRPAPGKEREFVAAITSIGGSTYYADSVKGRFTISRDNAKNTVYLQMNSLKPEDTAVYYCNTDRGPVKVSPLYVSWGQGTQVTLSS | low polyreactivity |
| QVQLVESGGGLVQAGGSLRLSCAASGYAKGWYRQAPGKESELDAAITSNGGRTYYADSVKGRFTISRDNAKNTVYIQMNSLKPEDTAVYYCATRSGPHYKTRWTYDLGYWGQGSQVTVSS | low polyreactivity |
| QVQLVESGGGLVQAGGSLRLSCAASGYAMGWYRQAPGKERELVAAITRRGGSTYYADSVKGRFTISRDNAKNTVYLQMNSLKPEDTAVYYCAADNPSYNLWYGYWGQGTQVTVSS | low polyreactivity |
| QVQLVESGGGLVQAGGSLRLSCAASGYARGWYRQAPGKERELVAAITSGGSTNYADSVKGRFTISRDNAKNTVYLQMNSLKPEDTAVYYCAAAYSLYGHRYDYWGQGTQVTVSS | low polyreactivity |
| QVQLVESGGGLVQAGGSLRLSCAASGYGYVMGWYRQAPGKERELVAAISRSGGSTYYADSVKGRFTISRDNAKNTVYFQMNSLIPEDTAVYDCAARWPGAYHDYGYWGQVTQVTVSS | high polyreactivity |
| QVQLVESGGGLVQAGGSLRLSCAASGYIFALNAMGWYRPAPGKEWELVAAINDSGDSTYYADSVKGRFTISRDNAKNTVYLQMNSLKPEDTAVYYCAAGFSYEWCYPTFDYWGQGTQVTVSS | low polyreactivity |
| QVQLVESGGGLVQAGGSLRLSCAASGYIFASYAMGWYRPAPGKERELVAAISIGGNTNYADSVKGRFTISRDNAKNTVYLQMNSLKPEDTAVYYCAAKTPRYRYGYWRQGTQVTVSS | low polyreactivity |
| QVQLVESGGGLVQAGGSLRLSCAASGYIFATNAMGWYRQSPGKERELVAAITRSGGRTYYADSVKGRFTISRDNAKNTVYLQMNSLKPEDTAVYYCAAARPTNIYYYWGQGTQVTVSS | high polyreactivity |
| QVQLVESGGGLVQAGGSLRLSCAASGYIFATYAMGWYRQAPGKERELVAAISWSGGRTYYADSVKGRFTISRDNAKNTVYLQMNGLKPEVTAVYYCAAQSYSRMDYWGQGTQVTVSS | high polyreactivity |
| QVQLVESGGGLVQAGGSLRLSCAASGYIFAVYAMGWYRQAPGKEREFVAVITWRGGSTYYADSVKGRFTISRDNAKNTVYLQMNSLKPEDTAVYYCAADVYAQYDYWGQGTQVTVSS | high polyreactivity |
| QVQLVESGGGLVQAGGSLRLSCAASGYIFDGNAMGWYRQAPGKERELVAPITWTGGSTYYADSVKGRFTISRDNAKNTVYLQMNSLKPEDTAVYYCAKPYDPGPYHSSYRATDDYWGQGTQVTVSS | low polyreactivity |

| Sequence | polyreactivity (PSR sort gate) |
| --- | --- |
| QVQLVESGGGLVQAGGSLRLSCAASGYIFDIYAMGWYRQAPGKERELVAVITRSGGGTYYADSVKGRFTISRDNAKNTVYFQMNSLKPEDTAVYYCAAESYVYGGSDYVYWGQGTEVTVSS | low polyreactivity |
| QVQLVESGGGLVQAGGSLRLSCAASGYIFDRNAMGWYRQAPGKERELLAAITKRGGITYYADSVKGRFTISRDNAKNTVYLQMNSLKPEDTAVYYCAADIGYYVYNDYDYWGQGTQVTVSS | low polyreactivity |
| QVQLVESGGGLVQAGGSLRLSCAASGYIFDVYDMGWYRQAPGKERELVAAITDYADSVKGRFTISRDNAKNTVYLQMNSLKPEDTAVYYCAADTDVLKGTTGFEYWGQGTQVTVSS | low polyreactivity |
| QVQLVESGGGLVQAGGSLRLSCAASGYIFDWNAMGCYRQAPGKERELVAAISSGGRTNYADSVKGRFTISRDNAKNTVYLQMNSLKPEDTAVYYCNTGPYTFDSPEYYYWGQGTQVTVSS | low polyreactivity |
| QVQLVESGGGLVQAGGSLRLSCAASGYIFDYYAMGWYRQAPGKERELVAAISSSGGTTYYADSVKGRFTISRDNAKNTVYLQMNSLKPEDTEVYYCAARKSRWHRGYYYWGQGTQVTVSS | high polyreactivity |
| QVQLVESGGGLVQAGGSLRLSCAASGYIFDYYAMGWYRQAPGKERELVAGISRRGGSTYYADSVKGRFTISRDNAKNTVYLQMNSLKPEDTAVYYCAGLGDDATSYGYWGQGTQVTVSS | high polyreactivity |
| QVQLVESGGGLVQAGGSLRLSCAASGYIFENYALGWYRQAPGKERELVAALSTRGGSTYYADSVKGRFTISRDNAKNTVYLQMNSLKPEDTAVYYCAAADSTGYYYWGQGTQVTVSS | high polyreactivity |
| QVQLVESGGGLVQAGGSLRLSCAASGYIFFTYTMGWYRQAPGKERELVAAINGSVGSTYYADSVKGRFTISRDNAKNTVYLQMNSLKPEDTAVYYCAAEVVDFGYSYEWEDDYWGQGTQVTVSS | high polyreactivity |
| QVQLVESGGGLVQAGGSLRLSCAASGYIFGAYAMGWYRPAPGKERELVAGITASGDSTYYADSVKGRFTISRDNAKNTVYLQMNSLKPEDTAVYYCNAQPDIGLYDRQWKEPYEYWGQGTQVTVSS | low polyreactivity |
| QVQLVESGGGLVQAGGSLRLSCAASGYIFGDYVMGWYRQAPGKERELVAAISSSGDTNYADSVKGRFTISRDNAKNTVYLQMNSLKPEDTAVYYCAAVDWIGRVHGKPWGGDYWGQGTQVTVSS | low polyreactivity |
| QVQLVESGGGLVQAGGSLRLSCAASGYIFGNYAMGWYRQAPGKERELVADITWRGDSTYADSVKGRFTISRDNAKKTVYLQMNSLKPEDTAVYYCAADIATEYWYTGYDHWGQGTQVTVSS | low polyreactivity |
| QVQLVESGGGLVQAGGSLRLSCAASGYIFGTYGMGWYRQAPGKERELVAGISRSGTSTYYADSVKGRFTISRDNAKNTVYLQMNSLKPEDTAVYYCAAVSRTRYEYWGQGTQVTVSS | high polyreactivity |
| QVQLVESGGGLVQAGGSLRLSCAASGYIFGWYAMGWYRQAPGKERELVATIDWSGDSTYYADSVKGRFTISRDNAKNTVYLQMNSLKPEDTAVYYCSAGVGYITYYGYDYWGQGTQVTVSS | low polyreactivity |
| QVQLVESGGGLVQAGGSLRLSCAASGYIFGYVMGWYRQAPGKERELVAAITYSSGNTYYADSVKGRFTISRDNAKNTVYLQMNSLKPEDTAVYYCAKQAYYKGRLAYGYWGQGTQVTVSS | high polyreactivity |
| QVQLVESGGGLVQAGGSLRLSCAASGYIFHRYAMGWYRQAPGKEREFVAAIRWSGGSTYYADSVKGRFTISRDNAKNTVYLQMNSLKPEDTAVYYCAADKYVLGYYYGQYDYWGQGTQVTVSS | low polyreactivity |
| QVQLVESGGGLVQAGGSLRLSCAASGYIFKYYAMGWYRQAPGKERELVAAISRSGDSTYYADSVKGRFTISRDNAKNTVYLQMNSLKPEATAVYYCKARYWHGPTGSDYWGQGTQVTVSS | high polyreactivity |
| QVQLVESGGGLVQAGGSLRLSCAASGYIFKYYAMGWYRQAPGKERELVATINYSGGGTYYADSVKGRFTISRDNAKNTVYLQMNRLKPEDTAVYYCAAREKYISYSYYYWGQCTQVTVSS | high polyreactivity |
| QVQLVESGGGLVQAGGSLRLSCAASGYIFLANAMGWYRQAPGKERELVAAITSGGGGTYYADSVKGRFTISRDNAKNTVYLQMNSLKPEDTAVYYCAADHGRDGSSFEYWGQGTQVTVSS | low polyreactivity |
| QVQLVESGGGLVQAGGSLRLSCAASGYIFLGNAMGWYRQAPGKERELVAAINSSGGSTYYADSVKGRFTISRDNAKNTVYLQMNSLKPEDTAVYYCATSDRDGIYVVPHMDYWGQGTQVTVSS | low polyreactivity |
| QVQLVESGGGLVQAGGSLRLSCAASGYIFLPYAMGWYRQAPGKERELVAAITSVGRTYYADSVKGRFTISRDNAKNTVYLQMNSLKPEDTAVYYCAAPRGHGKYYSWGQGTQVTVSS | high polyreactivity |
| QVQLVESGGGLVQAGGSLRLSCAASGYIFLVYAMGRSRHAPRKERELVASITRGTRTYYADSVKGRFTISRDNAKNTVYLQMNILKPEDSAVYYCAASQNIRDWFRFGYGSWGQGTQVTVSS | low polyreactivity |
